From article PMC6821365
Changes are numbered by the printed parent chain.

How the values were obtained:
Test in all cases: ITC
yedK R77A = molecular target: T1, yedK R77A (Escherichia coli (gene from BL21 …, UniProt P76318 2-222, R77A))
T1 sequence: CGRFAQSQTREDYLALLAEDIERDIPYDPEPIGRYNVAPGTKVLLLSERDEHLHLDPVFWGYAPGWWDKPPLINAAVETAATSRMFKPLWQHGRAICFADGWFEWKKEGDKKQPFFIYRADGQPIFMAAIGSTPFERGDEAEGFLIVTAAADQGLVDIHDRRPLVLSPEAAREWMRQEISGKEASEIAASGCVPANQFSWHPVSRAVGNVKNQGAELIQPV

yedK W106A = molecular target: T2, yedK W106A (Escherichia coli (gene from BL21 …, UniProt P76318 2-222, W106A))
T2 sequence: T1 sequence with A76R, W105A

yedK T80A = molecular target: T3, yedK T80A (Escherichia coli (gene from BL21 …, UniProt P76318 2-222, T80A))
T3 sequence: T1 sequence with A76R, T79A

yedK K113A = molecular target: T4, yedK K113A (Escherichia coli (gene from BL21 …, UniProt P76318 2-222, K113A))
T4 sequence: T1 sequence with A76R, K112A

yedK C2A = molecular target: T5, yedK C2A (Escherichia coli (gene from BL21 …, UniProt P76318 2-222, C2A))
T5 sequence: T1 sequence with C1A, A76R

yedK S84A = molecular target: T6, yedK S84A (Escherichia coli (gene from BL21 …, UniProt P76318 2-222, S84A))
T6 sequence: T1 sequence with A76R, S83A

yedK P40G = molecular target: T7, yedK P40G (Escherichia coli (gene from BL21 …, UniProt P76318 2-222, P40G))
T7 sequence: T1 sequence with P39G, A76R

yedK R162A = molecular target: T8, yedK R162A (Escherichia coli (gene from BL21 …, UniProt P76318 2-222, R162A))
T8 sequence: T1 sequence with A76R, R161A

## CGGTCGATTC (ssDNA) [ssDNA]
yedK R77A
  binding result: no binding
yedK W106A
  Kd: 18.7 µM
yedK T80A
  Kd: 12.6 µM
yedK K113A
  Kd: 2.1 µM
yedK C2A
  Kd: 7.9 µM
yedK S84A
  Kd: 10.8 µM
yedK P40G
  Kd: 10.8 µM
yedK R162A
  binding result: no binding
